Measurements as given in article PMC12416549 (2024).

Molecular target: T1, TNFR1 (Homo sapiens, UniProt P19438)
T1 chain: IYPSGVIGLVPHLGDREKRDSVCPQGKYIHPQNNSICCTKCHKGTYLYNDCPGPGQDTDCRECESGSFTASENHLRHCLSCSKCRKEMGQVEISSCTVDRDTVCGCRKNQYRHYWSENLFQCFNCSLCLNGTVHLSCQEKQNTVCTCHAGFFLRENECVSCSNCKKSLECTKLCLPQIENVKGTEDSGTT
Experiment: yeast display SC50

Binder | apparent Kd (screen)
A11H (designed binder) MTLQELLREEHLRRAEAEAFRYALELLAEKFPEQKEYLLDLAEEIESQIRSLSGVDVEDVRKFLDKEWAWVKELLAEHPAELAEVEAARAARLAELRAEVEAKVAA | 718 pM
E18H (designed binder) MTLQELLREEALRRAEAHAFRYALELLAEKFPEQKEYLLDLAEEIESQIRSLSGVDVEDVRKFLDKEWAWVKELLAEHPAELAEVEAARAARLAELRAEVEAKVAA | 490 pM
L24R (designed binder) MTLQELLREEALRRAEAEAFRYARELLAEKFPEQKEYLLDLAEEIESQIRSLSGVDVEDVRKFLDKEWAWVKELLAEHPAELAEVEAARAARLAELRAEVEAKVAA | 7780 pM
M1R (designed binder) RTLQELLREEALRRAEAEAFRYALELLAEKFPEQKEYLLDLAEEIESQIRSLSGVDVEDVRKFLDKEWAWVKELLAEHPAELAEVEAARAARLAELRAEVEAKVAA | 593 pM
L6N (designed binder) MTLQENLREEALRRAEAEAFRYALELLAEKFPEQKEYLLDLAEEIESQIRSLSGVDVEDVRKFLDKEWAWVKELLAEHPAELAEVEAARAARLAELRAEVEAKVAA | 22200 pM
E5T (designed binder) MTLQTLLREEALRRAEAEAFRYALELLAEKFPEQKEYLLDLAEEIESQIRSLSGVDVEDVRKFLDKEWAWVKELLAEHPAELAEVEAARAARLAELRAEVEAKVAA | 446 pM
R8P (designed binder) MTLQELLPEEALRRAEAEAFRYALELLAEKFPEQKEYLLDLAEEIESQIRSLSGVDVEDVRKFLDKEWAWVKELLAEHPAELAEVEAARAARLAELRAEVEAKVAA | 10400 pM
Y22M (designed binder) MTLQELLREEALRRAEAEAFRMALELLAEKFPEQKEYLLDLAEEIESQIRSLSGVDVEDVRKFLDKEWAWVKELLAEHPAELAEVEAARAARLAELRAEVEAKVAA | 653 pM
T2F (designed binder) MFLQELLREEALRRAEAEAFRYALELLAEKFPEQKEYLLDLAEEIESQIRSLSGVDVEDVRKFLDKEWAWVKELLAEHPAELAEVEAARAARLAELRAEVEAKVAA | 539 pM
A15V (designed binder) MTLQELLREEALRRVEAEAFRYALELLAEKFPEQKEYLLDLAEEIESQIRSLSGVDVEDVRKFLDKEWAWVKELLAEHPAELAEVEAARAARLAELRAEVEAKVAA | 653 pM
A28N (designed binder) MTLQELLREEALRRAEAEAFRYALELLNEKFPEQKEYLLDLAEEIESQIRSLSGVDVEDVRKFLDKEWAWVKELLAEHPAELAEVEAARAARLAELRAEVEAKVAA | 12500 pM
E9L (designed binder) MTLQELLRLEALRRAEAEAFRYALELLAEKFPEQKEYLLDLAEEIESQIRSLSGVDVEDVRKFLDKEWAWVKELLAEHPAELAEVEAARAARLAELRAEVEAKVAA | 718 pM
L3M (designed binder) MTMQELLREEALRRAEAEAFRYALELLAEKFPEQKEYLLDLAEEIESQIRSLSGVDVEDVRKFLDKEWAWVKELLAEHPAELAEVEAARAARLAELRAEVEAKVAA | 2730 pM
E36G (designed binder) MTLQELLREEALRRAEAEAFRYALELLAEKFPEQKGYLLDLAEEIESQIRSLSGVDVEDVRKFLDKEWAWVKELLAEHPAELAEVEAARAARLAELRAEVEAKVAA | 718 pM

Now from value to binder:

apparent Kd (screen) | Binder
539 pM | A42S (designed binder) MTLQELLREEALRRAEAEAFRYALELLAEKFPEQKEYLLDLSEEIESQIRSLSGVDVEDVRKFLDKEWAWVKELLAEHPAELAEVEAARAARLAELRAEVEAKVAA
653 pM | A105M (designed binder) MTLQELLREEALRRAEAEAFRYALELLAEKFPEQKEYLLDLAEEIESQIRSLSGVDVEDVRKFLDKEWAWVKELLAEHPAELAEVEAARAARLAELRAEVEAKVMA
490 pM | E46P (designed binder) MTLQELLREEALRRAEAEAFRYALELLAEKFPEQKEYLLDLAEEIPSQIRSLSGVDVEDVRKFLDKEWAWVKELLAEHPAELAEVEAARAARLAELRAEVEAKVAA
446 pM | D59T (designed binder) MTLQELLREEALRRAEAEAFRYALELLAEKFPEQKEYLLDLAEEIESQIRSLSGVDVETVRKFLDKEWAWVKELLAEHPAELAEVEAARAARLAELRAEVEAKVAA
718 pM | A94C (designed binder) MTLQELLREEALRRAEAEAFRYALELLAEKFPEQKEYLLDLAEEIESQIRSLSGVDVEDVRKFLDKEWAWVKELLAEHPAELAEVEAARAARLCELRAEVEAKVAA
539 pM | A94W (designed binder) MTLQELLREEALRRAEAEAFRYALELLAEKFPEQKEYLLDLAEEIESQIRSLSGVDVEDVRKFLDKEWAWVKELLAEHPAELAEVEAARAARLWELRAEVEAKVAA
7780 pM | W68P (designed binder) MTLQELLREEALRRAEAEAFRYALELLAEKFPEQKEYLLDLAEEIESQIRSLSGVDVEDVRKFLDKEPAWVKELLAEHPAELAEVEAARAARLAELRAEVEAKVAA
9410 pM | F63R (designed binder) MTLQELLREEALRRAEAEAFRYALELLAEKFPEQKEYLLDLAEEIESQIRSLSGVDVEDVRKRLDKEWAWVKELLAEHPAELAEVEAARAARLAELRAEVEAKVAA
490 pM | E36P (designed binder) MTLQELLREEALRRAEAEAFRYALELLAEKFPEQKPYLLDLAEEIESQIRSLSGVDVEDVRKFLDKEWAWVKELLAEHPAELAEVEAARAARLAELRAEVEAKVAA
490 pM | S47M (designed binder) MTLQELLREEALRRAEAEAFRYALELLAEKFPEQKEYLLDLAEEIEMQIRSLSGVDVEDVRKFLDKEWAWVKELLAEHPAELAEVEAARAARLAELRAEVEAKVAA
593 pM | V57H (designed binder) MTLQELLREEALRRAEAEAFRYALELLAEKFPEQKEYLLDLAEEIESQIRSLSGVDHEDVRKFLDKEWAWVKELLAEHPAELAEVEAARAARLAELRAEVEAKVAA
653 pM | A87S (designed binder) MTLQELLREEALRRAEAEAFRYALELLAEKFPEQKEYLLDLAEEIESQIRSLSGVDVEDVRKFLDKEWAWVKELLAEHPAELAEVESARAARLAELRAEVEAKVAA
653 pM | V55L (designed binder) MTLQELLREEALRRAEAEAFRYALELLAEKFPEQKEYLLDLAEEIESQIRSLSGLDVEDVRKFLDKEWAWVKELLAEHPAELAEVEAARAARLAELRAEVEAKVAA
22200 pM | L38P (designed binder) MTLQELLREEALRRAEAEAFRYALELLAEKFPEQKEYPLDLAEEIESQIRSLSGVDVEDVRKFLDKEWAWVKELLAEHPAELAEVEAARAARLAELRAEVEAKVAA
1400 pM | G54A (designed binder) MTLQELLREEALRRAEAEAFRYALELLAEKFPEQKEYLLDLAEEIESQIRSLSAVDVEDVRKFLDKEWAWVKELLAEHPAELAEVEAARAARLAELRAEVEAKVAA
539 pM | A83K (designed binder) MTLQELLREEALRRAEAEAFRYALELLAEKFPEQKEYLLDLAEEIESQIRSLSGVDVEDVRKFLDKEWAWVKELLAEHPAELKEVEAARAARLAELRAEVEAKVAA
539 pM | A106R (designed binder) MTLQELLREEALRRAEAEAFRYALELLAEKFPEQKEYLLDLAEEIESQIRSLSGVDVEDVRKFLDKEWAWVKELLAEHPAELAEVEAARAARLAELRAEVEAKVAR
539 pM | E81W (designed binder) MTLQELLREEALRRAEAEAFRYALELLAEKFPEQKEYLLDLAEEIESQIRSLSGVDVEDVRKFLDKEWAWVKELLAEHPAWLAEVEAARAARLAELRAEVEAKVAA
718 pM | A105D (designed binder) MTLQELLREEALRRAEAEAFRYALELLAEKFPEQKEYLLDLAEEIESQIRSLSGVDVEDVRKFLDKEWAWVKELLAEHPAELAEVEAARAARLAELRAEVEAKVDA
956 pM | K66T (designed binder) MTLQELLREEALRRAEAEAFRYALELLAEKFPEQKEYLLDLAEEIESQIRSLSGVDVEDVRKFLDTEWAWVKELLAEHPAELAEVEAARAARLAELRAEVEAKVAA
653 pM | E101K (designed binder) MTLQELLREEALRRAEAEAFRYALELLAEKFPEQKEYLLDLAEEIESQIRSLSGVDVEDVRKFLDKEWAWVKELLAEHPAELAEVEAARAARLAELRAEVKAKVAA
